This is an account of results in patent publication US20210238260.

Data set [1] deals with plasma purified human antithrombin III (AT-III), in complex with unfractionated heparin (UFH). As to the kind of experiment: ratio of K0.5 for AT-III/UFH inhibition, variant over Catalyst Biosciences WT FIXa; calculated from the lower-limit K0.5.

Sequence of Factor X, P00742 (P00742 whole entry, looked up): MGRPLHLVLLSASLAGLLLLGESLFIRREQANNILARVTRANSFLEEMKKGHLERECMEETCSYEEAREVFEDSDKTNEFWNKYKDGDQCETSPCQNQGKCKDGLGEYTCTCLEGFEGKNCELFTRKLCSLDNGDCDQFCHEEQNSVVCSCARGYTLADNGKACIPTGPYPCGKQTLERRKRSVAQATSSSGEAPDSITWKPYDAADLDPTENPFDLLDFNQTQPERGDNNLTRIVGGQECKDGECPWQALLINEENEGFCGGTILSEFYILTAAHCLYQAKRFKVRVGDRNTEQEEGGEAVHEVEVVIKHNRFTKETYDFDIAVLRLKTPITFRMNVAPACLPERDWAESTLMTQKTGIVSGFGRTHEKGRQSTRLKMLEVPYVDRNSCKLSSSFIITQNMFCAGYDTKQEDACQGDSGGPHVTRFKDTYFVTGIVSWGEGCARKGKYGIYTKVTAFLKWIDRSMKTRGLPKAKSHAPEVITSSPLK
Sequence of Factor X (FX), P00742 (P00742 whole entry, looked up): as above

B1: FIXa-R318Y/R338E/T343R/R403E/E410N (protein)
chain 1: YNSGKLEEFVQGNLERECMEEKCSFEEAREVFENTERTTEFWKQYVDGDQCESNPCLNGGSCKDDINSYECWCPFGFEGKNCELDVTCNIKNGRCEQFCKNSADNKVVCSCTEGYRLAENQKSCEPAVPFPCGRVSVSQTSKLTR
chain 2: VVGGEDAKPGQFPWQVVLNGKVDAFCGGSIVNEKWIVTAAHCVETGVKITVVAGEHNIEETEHTEQKRNVIRIIPHHNYNAAINKYNHDIALLELDEPLVLNSYVTPICIADKEYTNIFLKFGSGYVSGWGRVFHKGYSALVLQYLRVPLVDRATCLESTKFRIYNNMFCAGFHEGGRDSCQGDSGGPHVTEVEGTSFLTGIISWGEECAMKGKYGIYTKVSEYVNWIKNKTKLT
Regarding B1, in the data set with Factor X (FX), P00742, the Michaelis-Menten constant (KM) amounted to 0.0223 µM; the “catalytic activity (kcat/KM) for activation of FX” value is listed as “displayed some of the greatest increases in catalytic activity”; the kcat of FX activation by FIXa (Xase complex with FVIIIa, PC/PS vesicles, Ca2+) came to 9.7 s⁻¹. In addition, in the data set with Factor X, P00742, the “% of WT kcat/KM” value was 1217%, the catalytic constant (kcat) came out at 11.8 s⁻¹ and the kcat/KM was found to be 5.4e+08 M⁻¹ s⁻¹. In addition, the K0.5-mut/K0.5-wt in data set [1] was more than 517 fold.
